We go through seven molecules from patent US20170137473A1, “FLUOROGEN ACTIVATING AND SHIFTING TAG (FAST)” (PARIS SCIENCES ET LETTRE - QUARTIER LATIN, priority 2014, published 2017).

Residue numbers refer to the chain shown, from its start.

For data set [1] the following is noted: known in the art; cited from earlier work.
Data set [2] has as its system HeLa cells. The data set can be described thus: LIVE/DEAD viability assay (calceinAM, EthD1) of HeLa cells. Type of data set: cell-based. The note with it: incubated 5 h at 5, 10 and 20 μM; concentrations used for imaging. As for the experimental part:
Cell viability was tested by using calceinAM and EthD1 (LIVE/DEAD® viability/cytotoxicity assay kit). CalceinAM is a cell-permeant profluorophore cleaved by intracellular esterases releasing the green fluorescent polyanionic calcein in live cells. EthD1 (Ethidium homodimer 1) is a non cell-permeant nucleic acid red fluorescent stain that enters only cells with damaged membranes and undergoes a fluorescence enhancement upon binding to nucleic acids, thereby producing a bright red fluorescence in dead cells. Control experiments with HeLa cells non-incubated with dye (top left, live control) or incubated for 1 h with 1% hydrogen peroxyde (top right, dead control) are shown. Cell fluorescence was evaluated by confocal microscopy.

The target of data set [3] is T1, wild-type PYP (Halorhodospira halophila, UniProt P16113, C69G).
T1 construct: fusion partner differs by host: Aga2p (yeast surface display, pAG14); His-tag-ENLYFQG (E. coli, pET28a); expressed in transfected cells
T1 sequence (P16113 whole entry C69G, the tested form may be a part): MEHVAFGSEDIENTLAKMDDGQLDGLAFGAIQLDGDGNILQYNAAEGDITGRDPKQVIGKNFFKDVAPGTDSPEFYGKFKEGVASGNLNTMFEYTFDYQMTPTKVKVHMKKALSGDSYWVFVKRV
Nature of the data set: Fluorogen labeling of cells expressing wild-type PYP. Type of data set: cell-based. As for the experimental part: (§1) Flow cytometry analysis was performed on an Accuri C6 (BD Biosciences). Confocal micrographs were acquired on a Zeiss LSM 710 Laser Scanning Microscope equipped with a Plan Apochromat 63×/1.4 NA oil immersion objective. ZEN software was used to collect the data. Images were analyzed with Image J. Spinning-disk confocal micrographs were acquired on a Nikon Eclipse Ti microscope equipped with a 4×/0.15 N.A objective and a coolSnap HQ2/CDDcamera (Princeton Instrument). Metamorph premier 7.6 software (Molecular Devices) was used to collect the data.
(§2) Labeling of Y-FAST with HBR and HMBR in cells was then analyzed by flow cytometry in three different expression systems: yeast, E. coli and mammalian cells (HeLa cells). The fluorescence was compared to wild-type cells or cells expressing wild-type PYP. […] The performance and selectivity of Y-FAST labeling in mammalian cells, yeast and bacteria was furthermore confirmed by confocal microscopy (FIG. 14d and FIGS. 15 c to f and FIG. 16).

Data set [4] can be described thus: Acid-base titration and absorption/emission of free fluorogen in aqueous solution. The data set is classed as physicochemical. As for the experimental part:
(§3) pH measurements were performed on a Standard pH meter PHM210 Radiometer Analytical (calibrated with aqueous buffers at pH 4 and 7 or 10) with a Crison 5208 Electrode (Barcelona, Spain). UV/Vis absorption spectra were recorded in 1 cm×1 cm quartz cuvettes (Hellma) on a diode array UV/Vis spectrophotometer (Evolution array, Thermo Scientific). Corrected fluorescence spectra upon one-photon excitation were recorded with a Photon Technology International QuantaMaster QM-1 spectrofluorimeter (PTI, Monmouth Junction, NJ) equipped with a Peltier cell holder (TLC50, Quantum Northwest, Shoreline, Wash.). The overall emission quantum yields after one-photon excitation φ were calculated from the relation: […]
(§4) where the subscript ref stands for standard samples. A(λexc) is the absorbance at the excitation wavelength λexc, D is the integrated emission spectrum, and n is the refractive index for the solvent. The uncertainty for the experimental value of φ was estimated to be ±20%. The standard fluorophore for the quantum yields measurements was Fluorescein in sodium hydroxide 0.1 M with φref=0.92. The titration experiments used for the determination of the thermodynamic constants were performed on a SpectraMax®M5e (Molecular Devices) plate-reader. The on- and off-rate constants were determined by stopped-flow experiments using a RX2000 rapid kinetic stopped flow accessory (Applied Photophysics, Leatherhead, UK). The circular dichroism spectra were recorded on a J-815 circular dichroism spectropolarimeter (Jasco). The photobleaching experiments were performed on a the Photon Technology International QuantaMaster QM-1 spectrofluorimeter (PTI, Monmouth Junction, NJ) equipped with a Peltier cell holder (TLC50, Quantum Northwest, Shoreline, Wash.).
The stability of the synthesized compounds was evaluated in aqueous solutions at neutral pH. Unstable and/or non-soluble compounds were not further studied. The photochemical and acido-basic properties of the remaining compounds were thus analyzed. Acid-base titrations were performed in aqueous solution by recording absorption and emission spectra as a function of pH.
The protonated phenol state of HBR was indeed shown to strongly absorb violet light (maximal absorption wavelength 397 nm), while the phenolate state strongly absorbs blue light (maximal absorption wavelength 449 nm) (FIG. 2). This red-shift in absorption upon ionization can be explained by the stronger electronic donation of the negatively charged phenolate. The possible fluorescence increase of HBR was evaluated by restricting the motion thereof in monitoring the influence of medium viscosity on HBR fluorescence emission. With a pKA of 8.4±0.1, HBR is mainly protonated at physiological pH, which enabled to forecast it could undergo a specific red shift upon binding-induced deprotonation within a tailored protein cavity. In aqueous solution, both acidic and basic states of HBR are weakly fluorescent (FIG. 3), emitting respectively at 470 and 545 nm with 0.02% and 0.3% fluorescence quantum yields.

Data set [5] has as its system wild-type bacteria, yeast and mammalian cells. The data set can be described thus: Fluorescence background of fluorogen in wild-type cells (flow cytometry, confocal). The data set is classed as cell-based. As for the experimental part: as §1, §2
A short description of data set [6]: Absorption and emission properties of HBR-binding PYP variants in presence of HBR. The data set is classed as physicochemical. The note with it: variant with HBR; for λabs / λem: PBS pH 7.4; for Fluorescence quantum yield: fraction. As for the experimental part:
as §3, §4
The photophysical properties of the engineered fluorescent proteins were more precisely characterized. […] This 70 nm red-shift in absorption was in accordance with HBR being bound within the PYP-variant cavity in its deprotonated state. This red-shift in absorption upon binding was also accompanied with a large fluorescence increase at 540 nm (FIG. 10 and Table 2 below).

In data set [7] the test system is HeLa cells. Nature of the data set: Brightness and photostability of fluorescent proteins expressed in mammalian (HeLa) cells. The data set is classed as cell-based. As for the experimental part:
FIG. 18 is a set of graphs and images showing Y-FAST brightness and photo-resistance in mammalian cells. […] (a) Confocal micrographs of representative cells (Ex/Em 488/493-797 nm; scale bars 10 μm). Side-by-side images were recorded using the same settings for direct comparison of the fluorescence intensities. (b) Quantification of the fluorescence brightness of the different proteins (n=15-30 cells).
UnaG upon long-term observation with high power 488 nm laser excitation (light power 90 kW·cm-2, pixel dwell 1.58 μs). Plots show the fluorescence intensity as a function of the number of confocal microscope scans.
HEK293 and HeLa cells were cultured in DMEM supplemented with phenol red, Glutamax I, 10% fetal calf serum and 1% penicillin-streptomycin at 37° C. within a 5% CO2 atmosphere. For microscopy imaging, cells were seeded in μDish IBIDI (Biovalley) coated with poly-L-lysine. Cells were transiently transfected using Genejuice (Merck) according to the manufacturer's protocol.
as §1

Data set [8] can be described thus: Circular dichroism stability of Y-FAST versus temperature. Type of data set: physicochemical. The note with it: 25-45° C. range.
Description: Note that we verified by circular dichroism, that Y-FAST was stable in the considered temperature range in order to ascertain that our two-state model was valid for the subsequent analyses.
as §4

Setting [9] is: glycerol content increased from 0 to 40% (v/v).

On to “parahydroxybenzylidene-5-imidazolinone [p-HBI]”, for which, in data set [1], the “absorption wavelength, deprotonated form” value is recorded as 475 nm and the “absorption wavelength, protonated form” value is 397 nm.

On to `O=C1NC(=S)S/C1=C\c1ccc(O)cc1` [HBR, (Z)-5-(4-hydroxybenzylidene)-2-thioxo-1,3-thiazolidin-4-one], for which, in data set [2], the “toxicity for HeLa cells” value is listed as “non-toxic”. Further, the “binding to wild-type PYP” value in data set [3] is reported as “do not bind”. Besides, in data set [4] (aqueous solution), the pKa was determined as 8.4 ± 0.1. In data set [4] (free in aqueous solution), the “emission wavelength, acidic state” value is 470 nm; the “emission wavelength, basic state” value was determined as 545 nm; the “fluorescence quantum yield, acidic state” value is given as 0.02%; the “fluorescence quantum yield, basic state” value turned out to be 0.3%. Further, in data set [4] (free in aqueous solution), the “maximal absorption wavelength, phenolate state” value came to 449 nm and the “maximal absorption wavelength, protonated phenol state” value is 397 nm. The molecule also yielded a maximal absorption wavelength in data set [4] (free, PBS pH 7.4) of 397 nm. In addition, in data set [4] (setting [9]), the “increase of the fluorescence quantum yield, acidic state” value is reported as “Six” and the “increase of the fluorescence quantum yield, basic state” value is listed as “three-fold”. Also, the “fluorescence background in wild-type cells” value in data set [5] is on record as “no or negligible fluorescence background”.

B1: Clone 3: best fluorescent HBR-binding PYP variant, SEQ ID NO: 3, residues 94-101 WMIPTSRG (protein)
chain: MEHVAFGSEDIENTLAKMDDGQLDGLAFGAIQLDGDGNILQYNAAEGDITGRDPKQVIGKNFFKDVAPGTDSPEFYGKFKEGVASGNLNTMFEWMIPTSRGPTKVKVHMKKALSGDSYWVFVKRV
modifications: Functional derivative of SEQ ID NO: 48 - Clone 3
B1: in data set [6], the Extinction coefficient is 44,000 M^−1cm^−1, the “Relative brightness (% of EGFP)” value was 12 % of EGFP, the brightness was 4,000 and the λabs came out at 467 nm. Moreover, in data set [6], the λem stood at 542 nm and the Fluorescence quantum yield is 0.09. For the same molecule, the photostability in cells result in data set [7] (488 nm excitation) was “more stable than UnaG and Venus, but less than EGFP”. Further, in data set [7] (blue excitation at 488 nm, Y-FAST labeled with 5 μM HMBR), the “fluorescence in mammalian cells” value was “comparable with that of the green fluorescent proteins EGFP and UnaG, and two fold lower than that of the yellow fluorescent Venus”. Besides, the photostability in cells result in data set [7] (excitation at 514 nm) is recorded as “almost did not photobleach”. Further, the “fluorescence in mammalian cells” value in data set [7] (green excitation at 514 nm) was “five-fold less than Venus”. In data set [8], the “stability by circular dichroism” value is “stable”.

B2: Clone 2: fluorescent HBR-binding PYP variant, SEQ ID NO: 2, residues 94-101 WLIPTLPQ (protein)
chain: B1 chain with M95L, S99L, R100P, G101Q
modifications: Functional derivative of SEQ ID NO: 48 - Clone 2
With B2, in data set [6], the Extinction coefficient is 46,000 M^−1cm^−1, the “Relative brightness (% of EGFP)” value is reported as 8.3 % of EGFP, the brightness is 2,800 and the λabs was determined as 466 nm. Further, in data set [6], the λem came to 540 nm and the Fluorescence quantum yield came out at 0.06.

B3: Clone 4: fluorescent HBR-binding PYP variant, SEQ ID NO: 4, residues 94-101 WDIPTNPE (protein)
chain: B1 chain with M95D, S99N, R100P, G101E
modifications: Functional derivative of SEQ ID NO: 48 - Clone 4
For the molecule B3, in data set [6], the Extinction coefficient is 41,000 M^−1cm^−1, the “Relative brightness (% of EGFP)” value was 7.4 % of EGFP, the brightness is given as 2,500 and the λabs is 468 nm. Also, in data set [6], the λem is given as 541 nm and the Fluorescence quantum yield was 0.06.

B4: Clone 6: fluorescent HBR-binding PYP variant, SEQ ID NO: 6, residues 94-101 WLIPTRNA (protein)
chain: B1 chain with M95L, S99R, R100N, G101A
modifications: Functional derivative of SEQ ID NO: 48 - Clone 6
Consider B4, for which, in data set [6], the Extinction coefficient is 43,000 M^−1cm^−1, the “Relative brightness (% of EGFP)” value is 9.0 % of EGFP, the brightness was 3,000 and the λabs is 467 nm. In data set [6], the λem is recorded as 539 nm and the Fluorescence quantum yield is 0.07.

B5: Clone 5: fluorescent HBR-binding PYP variant, SEQ ID NO: 5, residues 94-101 WRIPTECA (protein)
chain: B1 chain with M95R, S99E, R100C, G101A
modifications: Functional derivative of SEQ ID NO: 48 - Clone 5
With B5, in data set [6], the Extinction coefficient is recorded as 47,000 M^−1cm^−1, the “Relative brightness (% of EGFP)” value is 8.3 % of EGFP, the brightness is given as 2,800 and the λabs is reported as 468 nm. In addition, in data set [6], the λem is on record as 542 nm and the Fluorescence quantum yield came out at 0.06.
